According to patent US9777044B2, “GLUT-1 as a receptor for HTLV envelopes and its uses” (CENTRE NATIONAL DE LA RECHERCHE SCIENTIFIQUE (CNRS), priority 2003, dated 2017):
Positions count from the first letter of the chain named. Numbers in names are those of the source.

Columns and labels:
293T cells [1] = assay: Medium acidification after transfection of envelope expression vectors; assay type: cell-based, human; settings: 293T cells transfected with envelope expression vector; phenol-red pH indicator
293T cells [2] = assay: Hexose uptake assay: 2-deoxyglucose; assay type: cell-based, human; settings: for glucose uptake in presence of glucose transporter inhibitors: control 293T cells, 20 μM cytochalasin B, 300 μM phloretin
Method: (§1) Assay of hexose uptake. 2-deoxy-D[1-^3H]glucose, D[U-^14C]fructose and 3-O-[^14C]methyl-D-glucose were obtained from Amersham. Hexose uptake assay were adapted from Harrison et al. 1991). After transfection, approximately 250,000 were seeded/well in 24-well plates. […] Uptake was initiated by adding labeled hexoses to a final concentration of 0.1 mM (2 μCi/ml for 2-2-deoxy-D[1-^3H]glucose and 0.2 μCi/ml for D[U-^14C]fructose and 3-O-[^14C]methyl-D-glucose) and cells were incubated for 5′ additional minutes. Cells were then resuspended in 500 μl cold serum-free glucose-free DMEM, wash one time in serum-free glucose-free DMEM, and solubilized in 400 μl of 0.1% SDS. 3 μl was used for Bradford normalization, while the rest was used for detection of either ^3H or ^14C by liquid scintillation in a Beckman counter.

GLUT-1 [3] = molecular target: T1, GLUT-1 (Homo sapiens, UniProt P11166); assay: Colocalization with GLUT-1 by fluorescence microscopy; assay type: cell-based
T1 construct: factor Xa cleavage site (C); His (C); expressed in transfected cells
T1 sequence (P11166 1-492): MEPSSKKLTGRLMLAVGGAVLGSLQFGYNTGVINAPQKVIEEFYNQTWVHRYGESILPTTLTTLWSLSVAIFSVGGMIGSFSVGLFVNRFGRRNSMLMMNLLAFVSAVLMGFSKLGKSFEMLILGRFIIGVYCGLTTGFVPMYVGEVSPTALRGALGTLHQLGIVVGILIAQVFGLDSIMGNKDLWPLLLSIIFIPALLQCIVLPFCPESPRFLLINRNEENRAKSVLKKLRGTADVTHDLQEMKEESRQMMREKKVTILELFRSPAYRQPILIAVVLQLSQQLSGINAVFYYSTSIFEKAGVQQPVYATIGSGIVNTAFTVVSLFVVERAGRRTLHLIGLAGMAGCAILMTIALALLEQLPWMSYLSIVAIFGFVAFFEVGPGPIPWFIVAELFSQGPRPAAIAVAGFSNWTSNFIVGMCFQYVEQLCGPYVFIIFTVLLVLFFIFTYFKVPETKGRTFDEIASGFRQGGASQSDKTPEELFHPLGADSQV
From the text: (§2) In order to directly test the ability of HTLV envelopes to bind GLUT-1, we derived a tagged GLUT-1 expression vector and overexpressed this protein in HeLa cells. […] GLUT-3 is the closest isoform to GLUT-1, and transports glucose with kinetics similar to that of GLUT-1. Thus, we derived a tagged GLUT-3 expression vector. […] To determine if GLUT-1 transfected cells were directly responsible for the observed increased in H1RBD binding, we derived fluorescent tagged GLUT-1 and GLUT-3 to uniquevocally identity GLUT-overexpressing cells in the course of our FACS analysis. […] Consequently, we tested if HTLV glycoproteins directly interact with GLUT-1 proteins. To this end, we evaluated the ability of H1RBD to immunoprecipitate GLUT-1. […] Therefore, the GLUT-1 glucose transporter is an essential component of the HTLV envelope receptor.

PiT2 [4] = assay: Colocalization with PiT2 by fluorescence microscopy; assay type: cell-based
PiT2 [5] = assay: RBD binding to cells overexpressing PiT2
GLUT-1 [6] = molecular target: T1, GLUT-1; assay: RBD binding to cells overexpressing GLUT-1; settings: tagged GLUT-1 expression vector, HeLa cells / 293T cells (FIG. 4a legend)
From the text: as §2
Expression vectors. Full length envelope expression vectors for HTLV-1 (pCEL/2[Denesvre, 1995]) and Friend ecotropic MLV (pCEL/F [Denesvre, 1995]), have been previously described. For the HTLV-2 envelope, a fragment from pHTE2 [Rosenberg, 1998] encompassing the tax, rex and env genes and the 3′ LTR was inserted in the pCSI [Battini, 1999] vector (pCSIX.H2). Full length envelope expression vectors for amphotropic MLV (pCSI.A), or devoid of its R peptide (pCSI.AΔR), and H183FEnv that contains the N-terminal 183 amino acids of the HTLV-1 receptor-binding domain in the F-MLV envelope background, as well as truncated envelope expression vectors, derived from pCSI and encoding either of the first 215 residues of HTLV-1 SU (H1RBD), the first 178 residues of HTLV2-SU (H2RBD) or the first 397 residues of the amphotropic murine leukemia virus (MLV) SU (Amp), fused to a C-terminal rabbit IgG Fc tag (rFc) or to EGFP (H2RBD-GFP). All point mutations introduced in HTLV-1 and -2 RBD constructs were generated using the quickchange site-directed mutagenesis method and mutations were verified by sequencing. Human Glut-1 and Glut-3 cDNA were amplified by PCR from the pLib HeLa cDNA library (Clontech), and inserted into pCHIX, a modified version of the pCSI vector that contains a cassette comprising a factor Xa cleavage site, two copies of the hemagglutinin (HA) tag, and a histidine tag. The resulting construct (pCHIX.hGLUT1) encodes a GLUT-1 protein with a HA-His tag at the C-terminal end. GLUT-1 and GLUT-3 were also inserted in a modified pCSI vector containing a DsRed2 C-terminal tag. Similarly, human CD147 was amplified from 293T total RNA by RT-PCR and inserted into the pCHIX backbone in frame with the HA-His tag (pCHIX.hCD147).
Binding assays. […] Binding was analyzed on a FACSCalibur (Becton Dickinson) and data analysis was performed using CellQuest (Becton Dickinson) and WinMDI (Scripps) softwares.

[7] = tested on: MLV particles pseudotyped with A-MLV envelopes; assay: Interference to infection by A-MLV envelope pseudotyped MLV particles; assay type: cell-based; settings: 293T cells transfected with H2RBD expression vector
From the text: (§3) Viral receptor permits entry and thus infection. No cellular system currently exists that lacks GLUT-1 expression. […] In this system, over-expression of HTLV-2 RBD interferes with infecting incoming HTLV particles and specifically decreases HTLV titers by at least 2 logs, while no effect is detected on control A-MLV titers. To determine if GLUT-1 is an entry receptor for HTLV, we overexpressed GLUT-1, GLUT-3 or Pit2 in addition to the interfering H2RBD. While Pit2 and GLUT-3 had no effect on HTLV titers, GLUT-1 completely alleviated the interference to infection induced by H2RBD (FIG. 5). […] Thus, GLUT-1 is an entry receptor for HTLV.
(§4) Infections. 293T cells were transfected in 6-wells plate, and one day after transfection, medium was replaced by high glucose DMEM supplemented with fructose (5 g/l) and non-essential amino acids. The next day, infection was initiated by adding supernatants containing MLV particles pseudotyped with either HTLV-2 or A-MLV envelopes. The following day, fresh medium was added, and 24 hours later cells were fixed and stained for alkaline phosphatase activity and dark focus of infection were counted. Viral particles were obtained by transfecting 293T cells with pLAPSN, pGagPol and either pCSIX.H2 or pCSI.A, and harvesting the 0.45 μm-filtered supernatants 24 hours later.

293T cells [8] = assay: Hexose uptake assay: fructose; assay type: cell-based, human; settings: transfected 293T cells
Method: as §1

[9] = tested on: MLV particles pseudotyped with HTLV-2 envelopes; assay: Interference to infection by HTLV-2 envelope pseudotyped MLV particles; assay type: cell-based; settings: 293T cells transfected with H2RBD expression vector
From the text: as §3, §4

HTLV receptor = molecular target: T2, HTLV receptor (Homo sapiens, UniProt P11166); assay: FACS binding assay of RBD and mutants on HeLa cells
T2 construct: endogenous in cells; host or cells: HeLa cells
T2 sequence (P11166 1-492): T1 sequence (P11166 1-492)
Method: Binding assays. Binding assays were carried out as previously described [Manel, 2003]. Briefly, 5×10^5 cells (293T, HeLa, Jurkat or freshly isolated human erythrocytes) were incubated with 500 μl of H1RBD, H2RBD or ARBD supernatants for 30 min at 37° C., washed with PBA (1% BSA, 0.1% sodium azide in PBS), and incubated with a sheep anti-rabbit IgG antibody conjugated to fluorescein isothiocyanate (Sigma). […] Binding was analyzed on a FACSCalibur (Becton Dickinson) and data analysis was performed using CellQuest (Becton Dickinson) and WinMDI (Scripps) softwares.

293T cells [10] = assay: Extracellular lactate in culture medium of transfected cells; assay type: cell-based, human; settings: medium of 293T cells one day post transfection
Method: Envelope expression and metabolic measurements. 293T cells were transfected with the various envelope expression vectors using a modified version of the calcium phosphate method. After an overnight transfection, cells were washed in phosphate-buffered saline (PBS) and fresh medium was added. Media were harvested at the indicated time points, filtered through a 0.45-μm pore-size filter, and lactate and glucose were measured with enzymatic diagnostic kits (Sigma). Values were normalized to cellular protein content using the Bradford assay (Sigma) after solubilization of cells in lysis buffer (50 mM Tris-HCl pH 8.0, 150 mM NaCl, 0.1% sodium dodecyl sulfate, 1.0% Nonidet P-40, 0.5% deoxycholate) and clarification by centrifugation.

GLUT-1 [11] = molecular target: T1, GLUT-1; assay: Immunoprecipitation of GLUT-1-HA with anti-rabbit-Fc beads; assay type: binding; settings: co-expression with GLUT-1 in 293T cells, probed with anti-HA antibody
From the text: FIGS. 4a-4c GLUT-1 is a receptor for HTLV envelopes. FIG. 4a, Binding of H1RBD, H2RBD, H2RBD D102A mutant, and ARBD to control 293T cells or 293T cells overexpressing either GLUT-1 or PiT2. FIG. 4b, Binding of H2RBD-EGFP to cells overexpressing GLUT-1-HA or GLUT-3-HA, and corresponding immunoblots using an anti-HA antibody. FIG. 4c, Immunoprecipitation of GLUT-1-HA from 293T cells transfected with either an irrelevant construct, GLUT-1 alone, H1RBD alone, H1RBD Y114A alone, GLUT-1 with H1RBD or GLUT-1 with H1RBD Y114A expression vectors Immunoprecipitation was performed using anti-rabbit-Fc beads and probed with an anti-HA antibody. Total cell extracts were blotted using an anti-rabbit Fc or an anti-HA antibody.
In order to directly test the ability of HTLV envelopes to bind GLUT-1, we derived a tagged GLUT-1 expression vector and overexpressed this protein in HeLa cells. […] GLUT-3 is the closest isoform to GLUT-1, and transports glucose with kinetics similar to that of GLUT-1. Thus, we derived a tagged GLUT-3 expression vector. […] To determine if GLUT-1 transfected cells were directly responsible for the observed increased in H1RBD binding, we derived fluorescent tagged GLUT-1 and GLUT-3 to uniquevocally identity GLUT-overexpressing cells in the course of our FACS analysis. […] To this end, we evaluated the ability of H1RBD to immunoprecipitate GLUT-1. […]

With “HTLV-2 Env: full length syncytial wild-type HTLV-2 envelope (pCSIX.H2) (MKWVTFISLLFLFSSAYS)” the medium acidification (293T cells [1]) was “did not readily acidify”.

For `O=C(CCc1ccc(O)cc1)c1c(O)cc(O)cc1O` [phloterin, phloretin, reference compound], the “glucose uptake in presence of glucose transporter inhibitors” value (293T cells [2]) was “inhibited glucose uptake”.

For GFP-tagged HTLV-2 RBD, the “colocalization with GLUT-1” value (GLUT-1 [3]) was “colocalized with GLUT-1” and the “colocalization with PiT2” value (PiT2 [4]) was “not with PiT2”.

For `C=C1[C@@H](C)[C@H]2[C@H](Cc3ccccc3)NC(=O)[C@]23OC(=O)/C=C/[C@H](O)CCC[C@@H](C)C/C=C/[C@H]3[C@@H]1O` [cytochalasin B, reference compound], the “glucose uptake in presence of glucose transporter inhibitors” value (293T cells [2]) was “inhibited glucose uptake”.

B1: H2RBD: first 178 residues of HTLV2-SU fused to a C-terminal rabbit IgG Fc tag (rFc) (protein)
chain: VDVPRDCGCKPCICTVPEVSSVFIFPPKPKDVLTITLTPKVTCVVVDISKDDPEVQFSWFVDDVEVHTAQTQPREEQFNSTFRSVSELPIMHQDWLNGKEFKCRVNSAAFPAPIEKTISKTKGRPKAPQVYTIPPPKEQMAKDKVSLTCMITDFFPEDITVEWQWNGQPAENYKNTQPIMDTDGSYFVYSKLNVQKSNWEAGNTFTCSVLHEGLHNHHTEKSLSHSPGK
In the case of B1, the “binding upon overexpression of PiT2” value (PiT2 [5]) is reported as “remained at background levels”, the “binding upon GLUT-1 overexpression” value (GLUT-1 [6]) is reported as “dramatically increased” and the “effect on control A-MLV titers” value [7] is reported as “no effect”. For the same molecule, the “decrease in 2-deoxyglucose uptake” value (293T cells [2]; transfected 293T cells vs control cells) was “approximately 4 fold”, the Fructose uptake (293T cells [8]) was “not altered” and the “decrease of HTLV titers by over-expression of interfering RBD” value [9] was “at least 2 logs”.

B2: D106A (protein)
chain: DYSPSCCTLTIGVSSYHSKPCNPAQPVCSWTLDLLALSADQALQPPCPNLVSYSSYHATYSLYLFPHWIKKPNRNGGGYYSASYSAPCSLKCPYLGCQSWTCPYTGAVSSPYWKFQQDVNFTQEVSRLNINLHFSKCGFPFSLLVDAPGYDPIWFLNTEPSQLPPTAPPLLPHSNLDHILEPSIPWKSKLLTLVQ
With B2 the “binding upon GLUT-1 overexpression” value (GLUT-1 [6]) was “did not bind GLUT-1”, the “binding to the HTLV receptor as detected by FACS analysis” value (HTLV receptor) was “significantly reduced” and the “lactate accumulation in cells expressing RBD mutant” value (293T cells [10]) was “minimally reduced”.

B3: Y114A (protein)
chain: B2 chain with A86D, Y94A
With B3 the “binding to the HTLV receptor as detected by FACS analysis” value (HTLV receptor) was “non-detectable”, the “detection of GLUT-1 upon immunoprecipitation with anti-rabbit-Fc-beads” value (GLUT-1 [11]) was “could not be detected” and the “lactate accumulation in cells expressing RBD mutant” value (293T cells [10]) was “not reduced”.
